From US20230357446A1

Target: CD22 on WSU-DLCL2 cells (WSU-DLCL2/CD22^WT; absent from the CRISPR-edited WSU-DLCL2/CD22^KO line) (human) (UniProt P20273)
Assay: cell-based or functional assay

CD4+ T cell activation (MFI of CD25); ratio CD22^KO:CD22^WT 0:100; 5 pM R1979 +0.46 nM R5837: 13400 MFI
CD4+ T cell activation (MFI of CD25); ratio CD22^KO:CD22^WT 0:100; 5 pM R1979 +2.8 nM R5837: 14800 MFI
CD4+ T cell activation (MFI of CD25); ratio CD22^KO:CD22^WT 0:100; 5 pM R1979 +16.7 nM R5837: 17700 MFI
CD4+ T cell activation (MFI of CD25); ratio CD22^KO:CD22^WT 20:80; 5 pM R1979 +0.46 nM R5837: 11200 MFI
CD4+ T cell activation (MFI of CD25); ratio CD22^KO:CD22^WT 20:80; 5 pM R1979 +2.8 nM R5837: 14400 MFI
CD4+ T cell activation (MFI of CD25); ratio CD22^KO:CD22^WT 20:80; 5 pM R1979 +16.7 nM R5837: 15300 MFI
CD4+ T cell activation (MFI of CD25); ratio CD22^KO:CD22^WT 40:60; 5 pM R1979 +0.46 nM R5837: 11800 MFI
CD4+ T cell activation (MFI of CD25); ratio CD22^KO:CD22^WT 40:60; 5 pM R1979 +2.8 nM R5837: 13200 MFI
CD4+ T cell activation (MFI of CD25); ratio CD22^KO:CD22^WT 40:60; 5 pM R1979 +16.7 nM R5837: 13600 MFI
CD4+ T cell activation (MFI of CD25); ratio CD22^KO:CD22^WT 60:40; 5 pM R1979 +0.46 nM R5837: 8520 MFI
CD4+ T cell activation (MFI of CD25); ratio CD22^KO:CD22^WT 60:40; 5 pM R1979 +2.8 nM R5837: 10900 MFI
CD4+ T cell activation (MFI of CD25); ratio CD22^KO:CD22^WT 60:40; 5 pM R1979 +16.7 nM R5837: 12000 MFI
CD4+ T cell activation (MFI of CD25); ratio CD22^KO:CD22^WT 80:20; 5 pM R1979 +0.46 nM R5837: 7520 MFI
CD4+ T cell activation (MFI of CD25); ratio CD22^KO:CD22^WT 80:20; 5 pM R1979 +2.8 nM R5837: 8280 MFI
CD4+ T cell activation (MFI of CD25); ratio CD22^KO:CD22^WT 80:20; 5 pM R1979 +16.7 nM R5837: 9850 MFI
CD4+ T cell activation (MFI of CD25); ratio CD22^KO:CD22^WT 100:0; 5 pM R1979 +0.46 nM R5837: 4280 MFI
CD4+ T cell activation (MFI of CD25); ratio CD22^KO:CD22^WT 100:0; 5 pM R1979 +2.8 nM R5837: 4060 MFI
CD4+ T cell activation (MFI of CD25); ratio CD22^KO:CD22^WT 100:0; 5 pM R1979 +16.7 nM R5837: 3150 MFI
CD8+ T cell activation (MFI of CD25); ratio CD22^KO:CD22^WT 0:100; 5 pM R1979 +0.46 nM R5837: 7920 MFI
CD8+ T cell activation (MFI of CD25); ratio CD22^KO:CD22^WT 0:100; 5 pM R1979 +2.8 nM R5837: 9030 MFI
CD8+ T cell activation (MFI of CD25); ratio CD22^KO:CD22^WT 0:100; 5 pM R1979 +16.7 nM R5837: 9880 MFI
CD8+ T cell activation (MFI of CD25); ratio CD22^KO:CD22^WT 20:80; 5 pM R1979 +0.46 nM R5837: 6310 MFI
CD8+ T cell activation (MFI of CD25); ratio CD22^KO:CD22^WT 20:80; 5 pM R1979 +2.8 nM R5837: 8410 MFI
CD8+ T cell activation (MFI of CD25); ratio CD22^KO:CD22^WT 20:80; 5 pM R1979 +16.7 nM R5837: 8660 MFI
CD8+ T cell activation (MFI of CD25); ratio CD22^KO:CD22^WT 40:60; 5 pM R1979 +0.46 nM R5837: 6140 MFI
CD8+ T cell activation (MFI of CD25); ratio CD22^KO:CD22^WT 40:60; 5 pM R1979 +2.8 nM R5837: 7920 MFI
CD8+ T cell activation (MFI of CD25); ratio CD22^KO:CD22^WT 40:60; 5 pM R1979 +16.7 nM R5837: 7880 MFI
CD8+ T cell activation (MFI of CD25); ratio CD22^KO:CD22^WT 60:40; 5 pM R1979 +0.46 nM R5837: 4800 MFI
CD8+ T cell activation (MFI of CD25); ratio CD22^KO:CD22^WT 60:40; 5 pM R1979 +2.8 nM R5837: 6620 MFI
CD8+ T cell activation (MFI of CD25); ratio CD22^KO:CD22^WT 60:40; 5 pM R1979 +16.7 nM R5837: 6670 MFI
CD8+ T cell activation (MFI of CD25); ratio CD22^KO:CD22^WT 80:20; 5 pM R1979 +0.46 nM R5837: 4250 MFI
CD8+ T cell activation (MFI of CD25); ratio CD22^KO:CD22^WT 80:20; 5 pM R1979 +2.8 nM R5837: 4890 MFI
CD8+ T cell activation (MFI of CD25); ratio CD22^KO:CD22^WT 80:20; 5 pM R1979 +16.7 nM R5837: 4970 MFI
CD8+ T cell activation (MFI of CD25); ratio CD22^KO:CD22^WT 100:0; 5 pM R1979 +0.46 nM R5837: 3000 MFI
CD8+ T cell activation (MFI of CD25); ratio CD22^KO:CD22^WT 100:0; 5 pM R1979 +2.8 nM R5837: 2510 MFI
CD8+ T cell activation (MFI of CD25); ratio CD22^KO:CD22^WT 100:0; 5 pM R1979 +16.7 nM R5837: 2160 MFI
Substance: REGN5837 (bispecific antibody)
% CD22^KO Survival; ratio CD22^KO:CD22^WT 20:80; 5 pM R1979 +0.46 nM R5837: 29.9%
% CD22^KO Survival; ratio CD22^KO:CD22^WT 20:80; 5 pM R1979 +2.8 nM R5837: 25.2%
% CD22^KO Survival; ratio CD22^KO:CD22^WT 20:80; 5 pM R1979 +16.7 nM R5837: 20.9%
% CD22^KO Survival; ratio CD22^KO:CD22^WT 40:60; 5 pM R1979 +0.46 nM R5837: 31.9%
% CD22^KO Survival; ratio CD22^KO:CD22^WT 40:60; 5 pM R1979 +2.8 nM R5837: 24.1%
% CD22^KO Survival; ratio CD22^KO:CD22^WT 40:60; 5 pM R1979 +16.7 nM R5837: 19.9%
% CD22^KO Survival; ratio CD22^KO:CD22^WT 60:40; 5 pM R1979 +0.46 nM R5837: 33.9%
% CD22^KO Survival; ratio CD22^KO:CD22^WT 60:40; 5 pM R1979 +2.8 nM R5837: 28.2%
% CD22^KO Survival; ratio CD22^KO:CD22^WT 60:40; 5 pM R1979 +16.7 nM R5837: 19.1%
% CD22^KO Survival; ratio CD22^KO:CD22^WT 80:20; 5 pM R1979 +0.46 nM R5837: 37.2%
% CD22^KO Survival; ratio CD22^KO:CD22^WT 80:20; 5 pM R1979 +2.8 nM R5837: 28.8%
% CD22^KO Survival; ratio CD22^KO:CD22^WT 80:20; 5 pM R1979 +16.7 nM R5837: 26.9%
% CD22^KO Survival; ratio CD22^KO:CD22^WT 100:0; 5 pM R1979 +0.46 nM R5837: 60.1%
% CD22^KO Survival; ratio CD22^KO:CD22^WT 100:0; 5 pM R1979 +2.8 nM R5837: 56%
% CD22^KO Survival; ratio CD22^KO:CD22^WT 100:0; 5 pM R1979 +16.7 nM R5837: 45.4%
% CD22^WT Survival; ratio CD22^KO:CD22^WT 0:100; 5 pM R1979 +0.46 nM R5837: 28.5%
% CD22^WT Survival; ratio CD22^KO:CD22^WT 0:100; 5 pM R1979 +2.8 nM R5837: 22.4%
% CD22^WT Survival; ratio CD22^KO:CD22^WT 0:100; 5 pM R1979 +16.7 nM R5837: 12.6%
% CD22^WT Survival; ratio CD22^KO:CD22^WT 20:80; 5 pM R1979 +0.46 nM R5837: 19.3%
% CD22^WT Survival; ratio CD22^KO:CD22^WT 20:80; 5 pM R1979 +2.8 nM R5837: 16.4%
% CD22^WT Survival; ratio CD22^KO:CD22^WT 20:80; 5 pM R1979 +16.7 nM R5837: 11.2%
% CD22^WT Survival; ratio CD22^KO:CD22^WT 40:60; 5 pM R1979 +0.46 nM R5837: 20.1%
% CD22^WT Survival; ratio CD22^KO:CD22^WT 40:60; 5 pM R1979 +2.8 nM R5837: 12.8%
% CD22^WT Survival; ratio CD22^KO:CD22^WT 40:60; 5 pM R1979 +16.7 nM R5837: 9.45%
% CD22^WT Survival; ratio CD22^KO:CD22^WT 60:40; 5 pM R1979 +0.46 nM R5837: 19.1%
% CD22^WT Survival; ratio CD22^KO:CD22^WT 60:40; 5 pM R1979 +2.8 nM R5837: 12.4%
% CD22^WT Survival; ratio CD22^KO:CD22^WT 60:40; 5 pM R1979 +16.7 nM R5837: 8.6%
% CD22^WT Survival; ratio CD22^KO:CD22^WT 80:20; 5 pM R1979 +0.46 nM R5837: 20.6%
% CD22^WT Survival; ratio CD22^KO:CD22^WT 80:20; 5 pM R1979 +2.8 nM R5837: 13.1%
% CD22^WT Survival; ratio CD22^KO:CD22^WT 80:20; 5 pM R1979 +16.7 nM R5837: 7.95%
